Data published in US5786168.

Experiments:
[1] = molecular target: PLA2-binding GIF from anti-CD3-treated AC5 cells (human); test: ELISA of the acid eluate fraction from 110BH3-Sepharose
[2] = molecular target: human antigen non-specific glycosylation inhibiting factor (GIF), hybridoma-derived (human); test: ELISA of the flow-through fraction from 110BH3-Sepharose
[3] = molecular target: human antigen non-specific glycosylation inhibiting factor (GIF), hybridoma-derived (human); test: ELISA, culture supernatant on wells coated with affinity-purified GIF from CL3
[4] = molecular target: recombinant human GIF secreted by COS-1 cells co-transfected with SRα-hcGIF and SRα-hfurin (human); test: fractionation of concentrated COS-1 supernatant on 388F1-Sepharose; GIF bioassay
[5] = molecular target: bovine serum albumin (BSA) (bovine) (UniProt P02769); test: ELISA, nonspecific binding of Ig in the same supernatant to BSA-coated wells

- ELISA signal (absorption at 490 nm) [1]: 0.86 absorbance
- ELISA signal (absorption at 490 nm) [2]: 0.36 absorbance
- ELISA signal (optical density at 410 mµ) [3]: 0.892 OD
- GIF activity recovered in the acid eluate fraction [4]: > 75%
- ELISA control (optical density at 410 mµ) [5]: 0.1 OD
Substance: monoclonal anti-human GIF antibody 388F1 (ATCC HB 10472)
